B1: KIAA1614 peptide 568-583 (uncharacterized protein KIAA1614), 16-mer library wild type / USP8 rhodanese domain (ubiquitin carboxyl-terminal hydrolase 8, residues 174-317) (parent)
chain 1: GMERVLGGLSSPLRLL
chain 2: KCETKEKGAITAKELYTMMTDKNISLIIMDARRMQDYQDSCILHSLSVPEEAISPGVTASWIEAHLPDDSKDTWKKRGNVEYVVLLDWFSSAKDLQIGTTLRSLKDALFKWESKTVLRNEPLVLEGGYENWLLCYPQYTTNAKV
B2: TET3 peptide 1705-1720 (methylcytosine dioxygenase TET3), 16-mer library wild type / USP8 rhodanese domain (ubiquitin carboxyl-terminal hydrolase 8, residues 174-317) (parent)
chain 1: GLALWEAKMKQLAERA
chain 2: B1 chain 2

Variants of: B1
Assay: peptide-phage display deep mutational scan (M13, 16-mer library, displayed with a C-terminal GGGSG linker encoded by the 3' flank) selected against the GST-tagged USP8 rhodanese domain, four rounds; NGS counts summed over selection …
Settings: with USP8 rhodanese domain (ubiquitin carboxyl-terminal hydrolase 8, residues 174-317), 10 µg GST-bait on MaxiSorp, pre-cleared on GST, 2 h at 4 °C, five washes with 0.05% Tween 20 in PBS, not graded, scale: average over two replicas of the peptide's fractional NGS count

Screen value, by site and new letter:
chain 1 M2: R 0.00145; L 0.00111; D 0.0101; T 0.0119; K 0.00296; S 0.00782; W 0.000604; A 0.00538; Q 0.00237; I 0.00918; N 0.00694; V 0.0166; F 0.00131; P 0.0198; H 0.0157; E 0.0668; G 0.0456
chain 1 L9: K 9.69e-05; G 9.76e-05; I 0.000484; T 0.0151; F 3.79e-05; W 0.000202; A 0.00126; H 4.07e-05; E 0.164; P 0.000947; N 0.00178; S 0.000763; D 0.0392; Y 6.18e-05; R 1.26e-05; Q 0.0169; M 9.62e-05; V 0.00586
chain 1 L15: A 1.26e-05; I 6.32e-06; N 1.26e-05; G 1.26e-05; V 1.26e-05
chain 1 E3: V 1.26e-05; S 0.000223; F 6.32e-06; L 6.32e-05; T 8.85e-05; W 0.000133; A 0.000229; P 9.48e-05; Y 0.000118; Q 0.00108; D 0.00356; H 0.00012; N 0.000897
chain 1 G7: I 0.000523; Q 0.00689; W 6.32e-06; S 0.000797; E 0.00446; Y 0.000924; A 0.00275; H 0.000322; P 1.55e-05; R 0.00011; N 0.00247; L 0.000596; V 0.0068; T 0.0883; K 1.55e-05; D 0.0412; M 0.00706; F 0.00722
chain 1 G1: Y 0.000202; H 0.00494; Q 0.0088; W 0.00137; M 0.000324; A 0.0197; D 0.00131; F 6.32e-06; E 0.000708; N 0.0012; K 0.000202; T 0.00523; P 0.00104; R 0.000532; L 3.16e-05; S 0.00457; I 8.36e-05; V 3.79e-05
chain 1 L16: P 1.26e-05; T 1.55e-05; M 0.00379; G 6.32e-06; V 5.05e-05; H 0.000246; Q 7.58e-05; A 1.55e-05; F 2.53e-05; N 6.32e-06; I 0.000468
chain 1 G8: D 6.32e-06; N 1.26e-05; V 0.000138; T 6.32e-06
chain 1 L13: K 6.32e-06; P 1.26e-05; H 2.53e-05; E 0.000467; W 0.000724; A 4.42e-05; N 6.32e-06; M 0.000258; S 0.00179; V 0.000364; R 1.26e-05; F 3.09e-05; T 0.00145; Y 0.000122; D 3.72e-05; G 6.32e-05
chain 1 L6: F 6.32e-06; N 6.32e-06; I 0.00654; V 6.32e-06; Q 1.9e-05; P 0.000164; S 6.32e-06; T 5.05e-05; G 6.88e-05

Variants of: B2
Assay: as above
Settings: with USP8 rhodanese domain (ubiquitin carboxyl-terminal hydrolase 8, residues 174-317), 10 µg GST-bait on MaxiSorp, pre-cleared on GST, 2 h at 4 °C, five washes with 0.05% Tween 20 in PBS, not graded, scale: average over two replicas of the peptide's fractional NGS count

Screen value, by site and new letter:
chain 1 L2: F 4.18e-05; P 4.33e-06; H 2.73e-05; K 1.3e-05; S 1.15e-05; I 0.00377; A 4.33e-06; R 4.33e-06; Y 1.73e-05; M 0.000603; W 0.000401; V 0.00764; T 4.33e-06
chain 1 L12: F 8.66e-06; M 4.33e-06; A 1.15e-05; R 1.15e-05; I 4.33e-06; K 4.33e-06; S 4.33e-06
chain 1 K10: L 0.000183; I 0.00024; V 0.00689; P 8.66e-06; N 0.0933; G 0.00596; Q 0.000152; T 0.00016; D 0.000192; E 0.0209; Y 0.000154; M 1.15e-05; S 0.0345; W 0.00214; H 0.0117; R 0.00248; A 0.0149; F 8.06e-05
